# What was measured:
# Format in all cases: in vivo, mouse
# [1] = test system: PLO-induced epilepsy in mice; assay: Pilocarpine (PLO) induced convulsive epilepsy in mice; details: for Grade IV seizure rate / mortality rate: 10 mice; for Grade IV seizure rate / mortality rate / Number of deaths / Number of Grade IV cases: PLO 225 mg/kg i.p.; for Number of deaths / Number of Grade IV cases: of 10 mice; for Number of Grade IV cases: 30 min observation; for Level II onset incubation period / Level III onset incubation period / Level IV onset incubation period: mean ± SEM; for Level IV onset incubation period: no grade IV attack recorded as 1800 s
# Protocol: Experimental example 3 The pharmacodynamic test of protein BD-4 (Example 4 protein) on convulsive epilepsy in mice caused by the convulsion agent Pilocarpine (PLO)
# Model group: • Diazepam (Diazepam) 2 mg/kg group; • Protein BD-4, 50 mg/kg group, 200 mg/kg group. Method: Model Preparation and Administration:
# The drug was administered once in the afternoon the day before modeling, PLO-225 mg/kg (modeling agent) was injected intraperitoneally 1 hour after the test drug was given to the stomach on the day of modeling. And positive drug can be administered once 20 minutes before modeling. Observe for 30 minutes after PLO injection.
# Observation indicators: 1) Seizure situation: the time of seizures from grade II to grade IV; 2) the time to death.
# Attack level: Refer to Racine grading standard: Level 0: No response; Grade I: manifested as twitching of facial muscles or the corners of the mouth; Level II: can nod; Level III: Twitching of one limb; Grade IV: rigidity or body twitching; Grade V: generalized epilepsy (generalized tonic seizures).
# Count the number of grade IV seizures and deaths in each group of mice in the experiment; Level II, III and IV incubation period. […] Chi-square test was used for statistics of the number of cases. The mean value and standard error of the incubation period were calculated, and TTEST was used to compare the model group with other groups. P<0.05 was considered as a significant difference.
# [2] = test system: PTZ-induced epilepsy in mice; assay: Pentylenetetrazole (PTZ) induced epilepsy in mice; details: for Grade IV seizure rate / mortality rate: 10 mice; for Grade IV seizure rate / mortality rate / Number of deaths / Number of Grade IV cases: PTZ 65 mg/kg i.p.; for Number of deaths / Number of Grade IV cases: of 10 mice; for Number of Grade IV cases: 15 min observation; for Level III onset latency / Grade IV onset latency: mean ± SEM; for Grade IV onset latency: no grade IV attack recorded as 900 s
# Protocol: Experiment Grouping: • Model group; • Retigabine 60 mg/kg group; • Protein BD-4, 50 mg/kg group, 200 mg/kg group; Method: Model Preparation and Administration:
# Administer once in the afternoon the day before modeling, On the day of modeling, intraperitoneal injection of PTZ-65 mg/kg (modeling agent) 1 hour after gavage of the test drug, the positive drug can be administered once half an hour before modeling. Continue to observe for 15 minutes after injection of PTZ.
# Observation index: 1) Seizure condition: Onset time of grade III to grade VI; 2) Death situation
# Onset level: Refer to Racine grading standard: Level 0: No response; Grade I: manifested as twitching of facial muscles or the corners of the mouth; Level II: Can nod; Grade III: twitching of one limb; Grade IV: Rigidity or body twitching; Grade V: Generalized epilepsy (Generalized tonic seizures).
# Count the number of seizures and deaths in each group of mice in the experiment; Level III and IV incubation period. The incubation period of mice that have not attacked to grade IV is recorded as the maximum of 900 seconds. Chi-square test was used for statistics of the number of cases. Calculate the mean and standard error of the incubation period. Use TTEST to compare the model group with other groups, and P<0.05 is considered as a significant difference.
# [3] = test system: phenol red excretion in mice; assay: Expectorant test, phenol red excretion method in mice; details: for Phenol red excretion: X ± SEM
# Protocol: Experimental example 5 The pharmacodynamic test of protein BD-4 (Example 4 protein) on the expectorant of phenol red excretion method in mice.
# • Solvent control group; • Mucosultan 30 mg/kg group; • Protein BD-4, 20 mg/kg group, 50 mg/kg group. Method: Model Preparation and Administration:
# The animals were fasted and watered 16 hours before the experiment. Orally administered Mucosultan and different doses of protein BD-4 (administration volume 10 ml/kg) in groups, and the solvent control group was given the same volume of distilled water. One hour later, 2.5% phenol red solution was injected intraperitoneally, Kill the mouse by removing the neck after 30 minutes. Take the trachea from below the thyroid cartilage to the branch of the trachea. Put the trachea into 3 ml 5% NaHCO3 solution and let it stand for 3 hours. Take 1 ml of the supernatant and centrifuge at 3000 rpm for 5 minutes. Measure and record the absorbance at 546 nm. According to the standard curve of phenol red, the excretion of phenol red was calculated.
# Record the time point of oral administration, the time point of intraperitoneal injection of 2.5% phenol red solution, and the time point of tracheal extraction respectively; The absorbance of each group of samples was measured by the microplate reader at 546 nm, Calculate the excretion of phenol red according to the standard curve of phenol red. Calculate the mean and standard error of the data in each group, use TTEST to compare the solvent control group with other groups, and P<0.05 is considered as a significant difference.
# [4] = test system: acetic acid writhing of ICR mice; assay: Acetic acid writhing test in ICR mice; details: for Number of twists / Writhing latency: 0.6% acetic acid i.p., within 15 minutes
# Protocol: Experimental example 7 The pharmacodynamic test of protein BD-4 (Example 4 protein) on acetic acid writhing in ICR mice. Animals: male ICR mice; Drugs and reagents: aspirin, physiological saline, glacial acetic acid, protein BD-4. Experiment Grouping:
# One day after the experimental animals adapt to the environment, Aspirin 300 mg/kg, protein BD-4 50 mg/kg, 200 mg/kg were given orally one hour in advance, and the administration volume was 10 ml/kg; Then, 0.6% acetic acid solution was injected into the abdominal cavity, and the latency period (seconds) and frequency of writhing in the animal was observed within 15 minutes.
# Calculate the mean and standard error of the data in each group. Compared with the model group by TTEST, P<0.05 was considered as statistically different.
# 0.6% acetic acid solution was injected into the abdominal cavity of mice, which caused deep and large area and long-term painful stimulation, causing the mice to writhe (the abdomen was contracted into an “S” shape, the trunk and hind legs were stretched, the buttocks were raised and the hips Row). The incubation time and the number of times the mice began to writhe were used as the pain response index to determine whether the test sample had analgesic effect. […] Compared with the model group, P<0.05, which is statistically significant.
molecule,measurement,setting,value
"BD-4: recombinant keratin, amino acid sequence SEQ ID NO: 1, expressed in E. coli; the protein of Example 4 was tested (protein, listed as Bos taurus) MSYSCCLPNLSFRSSCSSRPCVPSSCCGTTLPGACNIPANVGSCNWFCEGSFNGSEKETMQFLNDRLASYLEKVRQLERDNAELESRILERSQQQEPLVCPNYQSYFRTIEELQQKILCSKSENARLVVQIDNAKLASDDFRTKYETEVSLRQLVEADLNGLRRILDELTLCKSDLEARVESLKEELICLKQNHEQEVNTLRSQLGDRLNVEVDAAPTVDLNRVLNETRAQYEALVETNRRDVEEWYIRQTEELNKQVVSSSEQLQSYQAEIIELRRTVNALEVELQAQHNLRDSLENTLTETEARYSCQLAQVQGLIGNVESQLAEIRSDLERQNQEYQVLLDVRARLECEINTYRGLLDSEDCKLPCNPCATTNACERPCISNPCVSRARCGPCNTFVH","Epilepsy grade II incubation period, comparison with model group",[1]; 50 mg/kg,statistically different from the model group
same,"Epilepsy grade III incubation period, comparison with model group",[1]; 50 mg/kg,statistically different from the model group
same,Grade IV seizure rate,[1]; 50 mg/kg gavage,70%
same,mortality rate,[1]; 50 mg/kg gavage,0
same,Number of deaths,[1]; 50 mg/kg gavage,0
same,Number of Grade IV cases,[1]; 50 mg/kg gavage,7
same,Level II onset incubation period,[1]; 50 mg/kg,95 ± 3 s
same,Level III onset incubation period,[1]; 50 mg/kg,162 ± 5 s
same,Level IV onset incubation period,[1]; 50 mg/kg,974 ± 192 s
same,"Epilepsy grade III incubation period, comparison with model group",[1]; 200 mg/kg,statistically different from the model group
same,Grade IV seizure rate,[1]; 200 mg/kg gavage,90%
same,mortality rate,[1]; 200 mg/kg gavage,10%
same,Number of deaths,[1]; 200 mg/kg gavage,1
same,Number of Grade IV cases,[1]; 200 mg/kg gavage,9
same,Level II onset incubation period,[1]; 200 mg/kg,95 ± 6 s
same,Level III onset incubation period,[1]; 200 mg/kg,184 ± 17 s
same,Level IV onset incubation period,[1]; 200 mg/kg,765 ± 135 s
same,"Epilepsy grade III incubation period, comparison with model group",[2]; 50 mg/kg,statistically different from the model group
same,Grade IV seizure rate,[2]; 50 mg/kg gavage,80%
same,mortality rate,[2]; 50 mg/kg gavage,10%
same,Number of deaths,[2]; 50 mg/kg gavage,1
same,Number of Grade IV cases,[2]; 50 mg/kg gavage,8
same,Level III onset latency,[2]; 50 mg/kg,91 ± 12 s
same,Grade IV onset latency,[2]; 50 mg/kg,308 ± 103 s
same,"Epilepsy grade III incubation period, comparison with model group",[2]; 200 mg/kg,statistically different from the model group
same,Grade IV seizure rate,[2]; 200 mg/kg gavage,70%
same,mortality rate,[2]; 200 mg/kg gavage,0
same,Number of deaths,[2]; 200 mg/kg gavage,0
same,Number of Grade IV cases,[2]; 200 mg/kg gavage,7
same,Level III onset latency,[2]; 200 mg/kg,89 ± 8 s
same,Grade IV onset latency,[2]; 200 mg/kg,493 ± 113 s
same,Phenol red excretion,[3]; 20 mg/kg oral,0.898 ± 0.076 µg/mL
same,Phenol red excretion vs solvent control group,"[3]; 20 mg/kg, P<0.05",significantly increased
same,Phenol red excretion,[3]; 50 mg/kg oral,0.775 ± 0.101 µg/mL
same,Number of twists,[4]; 50 mg/kg oral,16.9 ± 3.7 times
same,Writhing latency,[4]; 50 mg/kg oral,315.2 ± 66.3 s
same,Number of writhing times vs model group,"[4]; 50 mg/kg, P<0.05",significantly reduce the number of writhing times
same,Number of twists,[4]; 200 mg/kg oral,25.1 ± 3.3 times
same,Writhing latency,[4]; 200 mg/kg oral,220.1 ± 16.6 s

# Reference: patent US12098176B2, “Keratin BD-4, preparation method, and pharmaceutical composition and use thereof” (Institute of Materia Medica, Chinese Academy of Medical …, priority 2019, dated 2024)
